From IntAct's records for PubMed 24207126

B1: Eukaryotic translation initiation factor 4E-binding protein 2 (Homo sapiens), Q13542 (parent)
chain: MSSSAGSGHQPSQSRAIPTRTVAISDAAQLPHDYCTTPGGTLFSTTPGGTRIIYDRKFLLDRRNSPMAQTPPCHLPNIPGVTSPGTLIEDSKVEVNNLNNLNNHDRKHAVGDDAQFEMDI

Variants of: B1
Details: with if4e_human EIF4E

| effect of a mutation on the interaction | Variant |
| --- | --- |
| decreasing interaction strength | Y54A;L59A |
| decreasing interaction strength | I78A;P79A;G80A;V81A;T82A |

Variants of: B1
Details: with if4e_human EIF4E
Remark: another data set of the same source

| effect of a mutation on the interaction | Variant |
| --- | --- |
| disrupting interaction strength | Y54A;L59A;I78A;P79A;G80A;V81A;T82A |
